Holding throughout (assay type): cell-based
Assay [1] concerns H1975 lung adenocarcinoma cells. Description: LDH assay, H1975 cells, 48 hours co-culture with 1 μM Osimeritinib. The settings on record: E:T 1:1, 48 hours, CD4+ T cells. The procedure, abridged:
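H1975 EGFR-mutant cells were co-cultured 48 h with CER-expressing or mock-transduced CD4+ T cells at 1:1 effector:target, plus 1 μM osimertinib. After T cells were washed away, viable H1975 cells were quantified by colorimetric LDH assay in triplicate, expressed as % of control.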

The test system of another assay is A549 ALK+ cells. Description: MTT viability and bright field microscopy of A549 ALK+ cells with CER T cells and ALK inhibitor. The settings on record: for in vitro growth/viability of A549 ALK+ cells (MTT): Alectinib or Crizotinib 250 nM-10 μM, E:T 2:1 and 5:1. The text has this:
An […] translocation was introduced into A549 cells. […] CER104 has a polypeptide sequence set forth in SEQ ID NO:133 and comprises a Tim4 binding domain, Tim4 transmembrane domain, and an engulfment signaling domain comprising a primary engulfment signaling domain comprising a TLR8 signaling domain and a secondary engulfment signaling domain comprising a DAP12 signaling domain. CER122 has a polypeptide sequence set forth in SEQ ID NO:149 and comprises a Tim4 binding domain, Tim4 transmembrane domain, and an engulfment signaling domain comprising a primary engulfment signaling domain comprising a TLR2 signaling domain and a secondary engulfment signaling domain comprising a DAP12 signaling domain. Effector:target (E:T) cell ratio for co-culture was 2:1 or 5:1. […] Cell viability experiments were performed in triplicates and presented as % of control. Best-fit curves were generated from raw data using linear regression models.
CER21−, CER108−, CER104−, and CER129-transduced CD4+ T cells were tested for their ability to kill A549 ALK+ cells in the presence of ALK inhibitor. CD4+ T cells were transduced with a lentiviral vector comprising a CER21, CER108, CER104, CER129, CER27, CER120, CER122, CER123, CER124, or CER126 nucleic acid. […] After 48 hours of co-culture, T cells were washed away and the number of viable A549 ALK+ cells was quantified using a calorimetric MTT assay (FIGS. 67A-B). Cell viability experiments were performed in triplicates and presented as % of control. Bright field microscopy images were also obtained from A549 ALK+co-culture experiments. […] Arrow indicates cluster of dead A549 ALK+ cells surrounded by phagocytic CER104+ T cells. […]

For the next assay, the system named is ALK+A549 cells. The assay can be described thus: Phagocytosis of ALK inhibitor treated A549 ALK+ cells by CER T cells (fluorescent microscopy). From the text: An ELM4-ALK translocation was introduced into A549 cells. […] CD4 T cells are modified to express CER104 or CER117 and labeled with CELLTRACE Violet. CER117 has a polypeptide sequence set forth in SEQ ID NO:144 and comprises a Tim4 binding domain, a Tim4 transmembrane domain, and an engulfment signaling domain comprising a primary engulfment signaling domain comprising a TLR8 signaling domain and a secondary engulfment signaling domain comprising a TRAF6 signaling domain. The ALK+A549 cells were then co-cultured with CER104- or CER117-expressing CD4+ T cells or Mock-transduced (vector only) T cells for 12 hours and images were obtained by fluorescent microscopy at 40× magnification (FIGS. 62A-E). White arrows indicate exemplary phagocytic events (pH rodo red cell targets within CELLTRACE Violet labeled CD4+ T cells).
CER123- and CER126-transduced CD4+ and CD8+ T cells were labeled with CELLTRACE Violet and co-cultured with the A549 ALK-positive cells. Co-cultured cells were imaged by fluorescent microscopy at 63× magnification after 12 hours (FIGS. 63A-F). White arrows indicate exemplary phagocytic events (pHrodo red targets within CELLTRACE Violet-labeled CD4 T cells).
Phagocytosis of Alectinib-treated ALK+A549 cells by CER-expressing T cells was also quantified. […] Bar graph in FIG. 64A represents quantification of percentage phagocytosis calculated as ((number of phagocytic target events)/(total number of effector cells))*100. Events were calculated from fluorescent 3×3 stitched images at 40×resolution after 12 hours of co-culture. Bar graph in FIG. 64B represents quantification of adjusted phagocytic index calculated as (median area ratio of target events in effector cells*phagocytosis). Events calculated from fluorescent 3×3 stitched images at 40×resolution after 12 hours of co-culture.
CER21−, CER27−, CER30−, CER108−, CER110−, CER112−, CER120−, CER123−, CER124−, CER126−, CER127−, or CER104-transduced CD4+ T cells were co-cultured with Alectinib-treated A549 cells at a 1:1 ratio for 12 hours. Phagocytic events were calculated from 3×3 stitched fluorescent microscopy images at 40X resolution. […] Images were obtained after 12 hours of co-culture. Yellow triangles indicate exemplary phagocytic events (pHrodo red targets within CELLTRACE violet labeled CD4+ T cells).
A time course study of phagocytic uptake of tumor cells by CER-transduced T cells was performed. CD4+ T cells were transduced with a lentiviral vector comprising CER122 nucleic acid. Mock-transduced (vector only) CD4+ T cells were used as control. CER122-transduced T cells were labeled with CELLTRACE violet and co-cultured with pHrodo red labeled A549 ALK+ lung adenocarcinoma cells. Fluorescent microscopy images were obtained at 4, 8, and 16 hours co-culture (FIG. 72C), and % phagocytosis (FIG. 72A) and phagocytic index (FIG. 72B) were calculated.

B1: CER122: Tim4 binding and transmembrane domains, TLR2 primary and DAP12 secondary signaling domains; SEQ ID NO:149 (protein)
chain: MSKGLLLLWLVTELWWLYLTPAASEDTIIGFLGQPVTLPCHYLSWSQSRNSMCWGKGSCPNSKCNAELLRTDGTRIISRKSTKYTLLGKVQFGEVSLTISNTNRGDSGVYCCRIEVPGWFNDVKKNVRLELRRATTTKKPTTTTRPTTTPYVTTTTPELLPTTVMTTSVLPTTTPPQTLATTAFSTAVTTCPSTTPGSFSQETTKGSAFTTESETLPASNHSQRSMMTISTDIAVLRPTGSNPGILPSTSQLTTQKTTLTTSESLQKTTKSHQINSRQTILIIACCVGFVLMVLLFLAFLHRFHGLWYMKMMWAWLQAKRKPRKAPSRNICYDAFVSYSERDAYWVENLMVQELENFNPPFKLCLHKRDFIPGKWIIDNIIDSIEKSHKTVFVLSENFVKSEWCKYELDFSHFRLFDENNDAAILILLEPIEKKAIPQRFCKLRKIMNTKTYLEWPMDEAQREGFWVNLRAAIKSYFLGRLVPRGRGAAEAATRKQRITETESPYQELQGQRSDVYSDLNTQRPYYK
modifications: CER122 protein
In the case of B1, the “killing of H1975 cells (LDH)” value in assay [1] was “synergistic killing of H1975 lung adenocarcinoma cells upon EGFR inhibition”. In addition, the “in vitro growth/viability of A549 ALK+ cells (MTT)” value in the assay on A549 ALK+ cells (48 hours) and in the assay with A549 ALK+ cells (72 hours) was “synergistically suppress in vitro growth of NSCLC cells harboring ALK rearrangements” throughout. For the same molecule, in the assay with ALK+A549 cells (CD4+ T cells, 4, 8, and 16 hours co-culture), the “phagocytic uptake of A549 ALK+ cells, time course” value is listed as “phagocytic events by CER122-transduced T cells”.

B2: CER126: Tim4 binding and transmembrane domains, TLR2 primary and TRAF2 secondary signaling domains; SEQ ID NO:174 (protein)
chain: MSKGLLLLWLVTELWWLYLTPAASEDTIIGFLGQPVTLPCHYLSWSQSRNSMCWGKGSCPNSKCNAELLRTDGTRIISRKSTKYTLLGKVQFGEVSLTISNTNRGDSGVYCCRIEVPGWFNDVKKNVRLELRRATTTKKPTTTTRPTTTPYVTTTTPELLPTTVMTTSVLPTTTPPQTLATTAFSTAVTTCPSTTPGSFSQETTKGSAFTTESETLPASNHSQRSMMTISTDIAVLRPTGSNPGILPSTSQLTTQKTTLTTSESLQKTTKSHQINSRQTILIIACCVGFVLMVLLFLAFLHRFHGLWYMKMMWAWLQAKRKPRKAPSRNICYDAFVSYSERDAYWVENLMVQELENFNPPFKLCLHKRDFIPGKWIIDNIIDSIEKSHKTVFVLSENFVKSEWCKYELDFSHFRLFDENNDAAILILLEPIEKKAIPQRFCKLRKIMNTKTYLEWPMDEAQREGFWVNLRAAIKSMAAASVTPPGSLELLQPGFSKTLLGTKLEAKYLCSACRNVLRRPFQAQCGHRYCSFCLASILSSGPQNCAACVHEGIYEEGISILESSSAFPDNAARREVESLPAVCPSDGCTWKGTLKEYESCHEGRCPLMLTECPACKGLVRLGEKERHLEHECPERSLSCRHCRAPCCGADVKAHHEVCPKFPLTCDGCGKKKIPREKFQDHVKTCGKCRVPCRFHAIGCLETVEGEKQQEHEVQWLREHLAMLLSSVLEAKPLLGDQSHAGSELLQRCESLEKKTATFENIVCVLNREVERVAMTAEAC
modifications: CER126 protein
B2: in assay [1], the “killing of H1975 cells (LDH)” value is “synergistic killing of H1975 lung adenocarcinoma cells upon EGFR inhibition”. The “bright field microscopy of A549 ALK+ co-culture” value in the assay on A549 ALK+ cells (Alectinib 3.7 μM, 48 hours, vs mock-transduced T cells) is recorded as “cluster of dead A549 ALK+ cells surrounded by phagocytic CER126^+ T cells”. The “phagocytic elimination of ALK+A549 cells” value in the assay with ALK+A549 cells (2.5 μM Alectinib, 12 hours) was “phagocytic elimination of ALK+A549 cells”.

These data come from patent US11708423B2, “Chimeric engulfment receptor molecules and methods of use” (CERO THERAPEUTICS, INC., priority 2017, dated 2023).
